From US20170137783A1

Target: mesothelin-Fc fusion protein, immobilized on beads (UniProt Q13421)
Test: cell-based or functional assay

UniProt Q13421, sequence (Q13421 other isoform, or with tags, fused parts or gaps limits assumed): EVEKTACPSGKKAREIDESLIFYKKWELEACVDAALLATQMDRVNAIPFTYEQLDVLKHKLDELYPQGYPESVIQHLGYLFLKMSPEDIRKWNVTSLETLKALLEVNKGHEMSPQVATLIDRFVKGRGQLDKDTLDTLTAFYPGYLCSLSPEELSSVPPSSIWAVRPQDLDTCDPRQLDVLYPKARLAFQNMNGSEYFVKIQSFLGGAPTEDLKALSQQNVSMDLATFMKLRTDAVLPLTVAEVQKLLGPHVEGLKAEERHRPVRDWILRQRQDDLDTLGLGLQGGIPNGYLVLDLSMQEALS

Substance | Total Population Doublings (donor 1) (population doublings) | Total Population Doublings (donor 2) (population doublings) | Total Population Doublings (donor 3) (population doublings)
mesothelin-specific 28z CAR (SS1 scFv, CD28 and CD3z signaling domains) (receptor) | 5.8 | 6.9 | 6
mesothelin-specific BBz CAR (SS1 scFv, 4-1BB and CD3z signaling domains) (receptor) | 8.8 | 8.4 | 8.4
